For 100 sequences, IC50 results are on record in the Immune Epitope Database (IEDB).

Some results are limits rather than exact numbers.

This test deals with HLA-A*02:01. Briefly: IEDB peptide-MHC binding, purified MHC/competitive/radioactivity; ≥ and ≤ were set here for values at or beyond the usual limits of such assays. Particulars: source organism: Human alphaherpesvirus 1.
In the case of FMPDFSRVI, the IC50 (commonly the midpoint of a concentration-inhibition curve) worked out at 101 nM.
On to FMQPDNANL, for which the IC50 is 47 nM.
Consider FMSVVNTNI, for which the IC50 came to 60 nM.
With FMTALVLSL, the IC50 is 0.8 nM.
On to FMVSSIDEL, for which the IC50 was 1.1 nM.
Next, FTATSIARV: 74 nM.
As to FTINIAAYL, the IC50 is 123 nM.
On to FTLPVLTFV, for which the IC50 was 1.1 nM.
With FTQKSLFPI the figure was 84 nM.
As to FVADVQHAA, the IC50 amounted to 7750 nM.
With FVALIPPTL the figure was 704 nM; with FVAPYFESV, 8.7 nM; with FVFVILARL, 720 nM.
As for FVGVIILGV, the IC50 worked out at 5.9 nM.
With FVPYVLALV, the IC50 worked out at 0.9 nM.
With FVVWALLGL the figure was 196 nM.
Next, FVVYNLTGV: 2.2 nM; FVWQERAAV: 261 nM.
For the sequence FVYTPSPYV, the IC50 stood at 129 nM.
For FWMSPVFNL, the IC50 is 96 nM.
Next, GIAWYVTSI: 143 nM.
Take GILTVVWTA: the IC50 was determined as 2.1 nM.
For GLARLDALV, the IC50 is 13 nM.
Take GLAVAMEV: the IC50 stood at 25 nM.
For GLAVDLYAL, the IC50 is 12 nM.
Regarding GLAVVLWSL, the IC50 is 17 nM.
In the case of GLDEQQLDV, the IC50 turned out to be 1180 nM.
For the sequence GLFFSVYAL, the IC50 came to 23 nM.
For the sequence GLFQEAYPL, the IC50 stood at 5.4 nM.
As to GLFQPFMFV, the IC50 amounted to 37 nM.
Turning to GLFVSLPVV, the IC50 amounted to 4.7 nM.
Turning to GLGRHLWRL, the IC50 is 133 nM.
As to GLISFYNFL, the IC50 was determined as 1.5 nM.
Next, GLLFVLLVA: 1060 nM; GLLGSLVGA: 3.7 nM.
In the case of GLLRVGADT, the IC50 was determined as 23900 nM.
Regarding GLNGDSFRV, the IC50 was 22 nM.
In the case of GLVFRFSEV, the IC50 worked out at 262 nM.
GLVLVWYTV: the IC50 came to 66 nM.
With GLVSFNFLV the figure was 0.5 nM; with GLWVCATSL, 36 nM.
With GLYLCVVYV, the IC50 amounted to 47 nM.
GMHPRGVHA: the IC50 was ≥ 70000 nM.
On to GMLICLTVL, for which the IC50 was found to be 548 nM.
In the case of GMRGLVLAT, the IC50 came out at 3660 nM.
With GMVIACLLV the figure was 252 nM; with GPGDPDVYL, 30600 nM.
As to GQAAALTDL, the IC50 was 2300 nM.
GVVIIAALV: the IC50 came to 1080 nM.
With HLCRYVALL, the IC50 was 200 nM.
HLMRDPALL: the IC50 stood at 37 nM.
In the case of HMFCDPMCA, the IC50 was 796 nM.
Next, HMGEVPPRL: 1740 nM.
Regarding IAPNASLGV, the IC50 was 110 nM.
Take IILTLIPRL: the IC50 was determined as 127 nM.
With IIPFLLVLV the figure was 55 nM; with IIWGELFGV, 2.3 nM; with ILDAARPAV, 99 nM.
As for ILFLWSFLV, the IC50 is 0.36 nM.
As for ILFSYDELV, the IC50 came out at 5.6 nM.
As for ILIEGIFFA, the IC50 is 0.17 nM.
Consider ILLENLMRA, for which the IC50 worked out at 19 nM.
As to ILMHATYFL, the IC50 worked out at 1.2 nM.
With ILMILIEGI the figure was 12 nM; with ILSPTAPSV, 6.1 nM; with ILVVSLLLV, 205 nM.
As to ILYSVLQHL, the IC50 was 55 nM.
As to ITMGMPYAV, the IC50 was determined as 23 nM.
As for IVYLCPVLV, the IC50 was determined as 137 nM.
In the case of KIFRCLTVL, the IC50 came out at 159 nM.
Take KLAVYYYII: the IC50 is 31 nM.
For KLCSPVFAI, the half-inhibitory concentration (IC50) came out at 9.3 nM.
Take KLLALLGQV: the IC50 stood at 33 nM.
Consider KLLWAVEPL, for which the IC50 is 12 nM.
KLMARRAQV: the IC50 came out at 795 nM.
Turning to KMAQCTLAV, the IC50 was 14 nM.
For KMDIDVEYL, the IC50 was found to be 148 nM.
Consider KMNQTLLFL, for which the IC50 turned out to be 907 nM.
Take KMSYPQFLA: the IC50 amounted to 1400 nM.
With KQLNYCHLI the figure was 398 nM; with KSMDDDTYV, 689 nM.
With KTWFLVPLI the figure was 1.7 nM.
As for LITDDGEVV, the IC50 worked out at 13700 nM.
Next, LITNYLPSV: 5.2 nM.
Turning to LLAENLPGL, the IC50 came to 1.1 nM.
For LLAFDTQPV, the IC50 amounted to 9.3 nM.
Turning to LLAKMLFYL, the IC50 is 5.6 nM.
On to LLANNPPPV, for which the IC50 was found to be 24 nM.
With LLANTVRYL, the IC50 was 75 nM.
For LLAPGPLFV, the IC50 turned out to be 5.6 nM.
Turning to LLAQFQHTV, the IC50 came to 1.2 nM.
With LLAVAVYAV the figure was 5.8 nM.
With LLDDLGFSA, the IC50 was determined as 46 nM.
As for LLDFELACL, the IC50 was 63 nM.
As for LLDTGPFSA, the IC50 amounted to 93 nM.
For the sequence LLFNSLYPA, the IC50 came out at 1.5 nM.
LLFVLLVAL: the IC50 is 1130 nM.
In the case of LLGGVMAAV, the IC50 was 25 nM.
Regarding LLGQVQTYV, the IC50 was 18 nM.
In the case of LLIDTGVYA, the half-maximal inhibitory concentration (IC50) came to 94 nM.
